Measurements taken from patent US20060252116A1 (published 2006).
Ends that are not written are not given here.

B1: aWssLahcl peptide (SEQ ID NO: 11) (peptide)
peptide: AWSSLAHCL
notes: Nine residues of the F strand of domain 1 of mature human ICAM-4, starting at A76; also called F strand peptide
B2: svpFWVrms peptide (SEQ ID NO: 9) (peptide)
peptide: SVPFWVRMS
notes: Nine residues of the A strand of domain 1 of mature human ICAM-4, starting at S15; also called A strand peptide
B3: rqgktlrgp peptide (SEQ ID NO: 13) (peptide)
peptide: RQGKTLRGP
notes: Control peptide; nine residues of the D strand of domain 1 of mature human ICAM-4, starting at R56; also called D strand peptide
B4: tRwATSRit peptide (SEQ ID NO: 10) (peptide)
peptide: TRWATSRIT
modifications: not fully specified (residues 1, 3, 8, 9)
notes: Nine residues of the G strand of domain 1 of mature human ICAM-4, starting at T91; also called G strand peptide
B5: human ICAM-4Fc (Fc fusion)
chain: AQSPKGSPLAPSGTSVPFWVRMSPEFVAVQPGKSVQLNCSNSCPQPQNSSLRTPLRQGKTLRGPGWVSYQLLDVRAWSSLAHCLVTCAGKTRWATSRITAYKPPHSVILEPPVLKGRKYTLRCHVTQVFPVGYLVVTLRHGSRVIYSESLERFTGLDLANVTLTYEFAAGPRDFWQPVICHARLNLDGLVVRNSSAPITLMLAWSPAPTA
notes: Expressed in COS-7 cells, purified on protein A; also called Fc fusion ICAM-4 protein; wild-type ICAM-4Fc; not shown: Fc part from the pIg vector

What was measured:
[1] = target: T1, αv integrins (as found on HT1080 cells) (UniProt P06756 31-1048); assay: HT1080 cell adhesion to coated human ICAM-4Fc (5 ug/ml); value is for the MIXTURE with control peptide SEQ ID NO: 13, each peptide 750 uM
T1 construct: whole, on cells; also called αv integrin ligand
Experimental: (§1) Human ICAM-4Fc was coated at a concentration of 5 μg/ml, peptides were used at 750 μM final concentration for each peptide, and each data point is the mean of two independent assays.
(§2) Cell adhesion assays were performed as described in Spring et al. 2001 (supra). Immulon4 96 well plates (Dynex Technologies, Billingshurst, United Kingdom) were coated with 1 μg/well goat-antihuman-Fc (Sigma, Poole, United Kingdom) for 24 hours at 4° C., washed three times with PBS and coated with an Fc fusion ICAM-4 protein for 18 hours at 4° C. before blocking with 0.4% BSA PBS for 2 hours at 22° C. Cells were labelled with 10 μg/ml 2′,7′-bis-(2-carboxyethyl)-5-(and-6-) carboxyfluorescein acetoxymethyl ester in assay buffer (IMEM, 2 mM EGTA, 10 μg/ml human ivIgG) for 15 minutes at 37° C. HT1080 cells were activated with 80 μM phorbol myristate acetate prior to both cells being washed with assay buffer containing 2 mM Mn²⁺. Cells, at 5×10⁴ cells per well, were added to the ICAM-4Fc-coated plates for 30 minutes at 37° C., prior to being given repeated washes in assay buffer and read on a fluorescence microplate reader (excitation 485 nm, emission 530 nm). The percentage of bound cells was calculated after each wash. Peptide inhibition was performed by incubating the cells with 500 μM peptide at 0° C. for 15 minutes ahead of their addition, still in the presence of 500 μM peptide to the ICAM-4Fc coated plates. In peptide inhibition studies the appropriate ICAM-4Fc coating concentration for each cell line was pre-determined by titration of ICAM-4Fc and the lowest concentration at which maximal binding was achieved was used to coat the plates

[2] = target: T1, αv integrins (as found on HT1080 cells); assay: HT1080 cell adhesion to coated human ICAM-4Fc (5 ug/ml); value is for the MIXTURE of SEQ ID NO: 9, 10 and 11, each peptide 750 uM
Experimental: as §1, §2

[3] = target: T1, αv integrins (as found on HT1080 cells); assay: HT1080 cell adhesion to coated human ICAM-4Fc (5 ug/ml), peptide 750 uM; competitor human ICAM-4Fc
Experimental: as §1, §2

[4] = target: T1, αv integrins (as found on HT1080 cells); assay: HT1080 cell adhesion to coated murine ICAM-4Fc (5 ug/ml), peptide 500 uM; competitor murine ICAM-4Fc
Experimental: FIG. 14. […] Murine ICAM-4Fc was coated at a concentration of 5 μg/ml, peptides were used at 500 μM final concentration for each peptide, and each data point is the mean of two independent assays.
as §2, with “plates.” for “plates. In peptide inhibition studies the appropriate ICAM-4Fc coating concentration for each cell line was pre-determined by titration of ICAM-4Fc and the lowest concentration at which maximal binding was achieved was used to coat the plates”

[5] = target: T1, αv integrins (as found on HT1080 cells); assay: HT1080 cell adhesion to coated human ICAM-4Fc (7.5 ug/ml), peptide 500 uM; competitor human ICAM-4Fc
Experimental: FIG. 10. […] Human ICAM-4Fc was coated at a concentration of 7.5 μg/ml, peptides were used at 500 μM final concentration for each peptide, and each data point is the mean of three independent assays.
as §2, with “plates.” for “plates. In peptide inhibition studies the appropriate ICAM-4Fc coating concentration for each cell line was pre-determined by titration of ICAM-4Fc and the lowest concentration at which maximal binding was achieved was used to coat the plates”

αMβ2 integrin = αMβ2 integrin (UniProt P11215 17-1152; P05107 23-769); assay: neutrophil adhesion to coated ICAM-4Fc with blocking integrin antibodies
Experimental: (§3) Utilising blocking β integrin subunit antibodies and our blocking ICAM-4 peptides (i.e., SEQ ID NOs: 9, 10, 11 and 13—see Example 1) in a microplate neutrophil adhesion assay. Neutrophils were purified from buffy coats (obtained from the National Blood Service, Bristol, UK) as described in Henderson et al. (1987, Biochem. J. 246: 325-329). Cell adhesion assays were performed as described in Example 1 above. […] Neutrophils were labelled with 10 μg/ml 2′,7′-bis-(2-carboxyethyl)-5-(and-6-)carboxyfluorescein acetoxymethyl ester (Sigma, Poole, UK) in assay buffer (Iscoves modified Eagle medium, 2 mM EGTA, 0.1% BSA for 15 minutes at 37° C. Neutrophils were washed with assay buffer containing 2 mM Mn²⁺. Neutrophils, at 5×10⁵ cells per well, were added to the ICAM-4Fc-coated plates for 10 minutes at 37° C., prior to being cyclically read on a fluorescence microplate reader (excitation 485 nm, emission 530 nm) and washed in assay buffer. The percentage of bound cells was calculated after each wash. Peptide and antibody inhibition was performed by incubating the cells with 500 μM peptide and 25 μg/ml antibody at 0° C. for 15 minutes before their addition to the ICAM-4 Fc coated plates. […]

αLβ2 integrin = target: T2, αLβ2 integrin (UniProt P20701 26-1170; P05107 23-769); assay: as above
T2 construct: whole, on cells; also called LFA-1; β2 integrins
Experimental: as §3

T1 sequence (P06756 31-1048): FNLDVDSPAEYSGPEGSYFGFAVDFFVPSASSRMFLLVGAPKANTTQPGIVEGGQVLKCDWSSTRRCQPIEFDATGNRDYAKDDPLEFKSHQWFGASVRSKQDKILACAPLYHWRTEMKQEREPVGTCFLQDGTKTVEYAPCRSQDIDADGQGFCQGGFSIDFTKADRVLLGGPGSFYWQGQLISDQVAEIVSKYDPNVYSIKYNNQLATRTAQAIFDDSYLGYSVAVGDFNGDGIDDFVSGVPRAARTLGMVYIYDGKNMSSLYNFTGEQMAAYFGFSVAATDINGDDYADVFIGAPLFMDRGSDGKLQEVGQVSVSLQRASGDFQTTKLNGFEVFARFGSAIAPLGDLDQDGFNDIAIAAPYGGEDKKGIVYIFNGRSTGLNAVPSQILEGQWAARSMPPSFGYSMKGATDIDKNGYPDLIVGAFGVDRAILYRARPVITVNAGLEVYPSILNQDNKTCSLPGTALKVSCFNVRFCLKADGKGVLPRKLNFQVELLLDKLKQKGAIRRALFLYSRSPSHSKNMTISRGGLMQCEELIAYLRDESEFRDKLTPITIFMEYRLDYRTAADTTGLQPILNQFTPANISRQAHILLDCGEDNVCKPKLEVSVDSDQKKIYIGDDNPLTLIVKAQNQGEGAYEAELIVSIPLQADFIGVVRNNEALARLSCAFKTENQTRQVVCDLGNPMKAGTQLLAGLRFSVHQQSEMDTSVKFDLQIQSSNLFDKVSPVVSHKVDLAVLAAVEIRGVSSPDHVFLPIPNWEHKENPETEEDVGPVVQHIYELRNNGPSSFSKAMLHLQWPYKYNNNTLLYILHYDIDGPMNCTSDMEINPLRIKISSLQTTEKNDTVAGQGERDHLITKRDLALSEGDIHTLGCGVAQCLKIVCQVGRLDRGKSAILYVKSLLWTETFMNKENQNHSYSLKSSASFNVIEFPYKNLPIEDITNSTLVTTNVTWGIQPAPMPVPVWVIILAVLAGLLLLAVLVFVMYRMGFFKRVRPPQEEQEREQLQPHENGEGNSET

| Binder | input cells bound as % of binding to ICAM-4Fc in the absence of peptides [1] | input cells bound as % of binding to ICAM-4Fc in the absence of peptides [2] | input cells bound as % of binding to ICAM-4Fc in the absence of peptides [3] | input cells bound as % of binding to murine ICAM-4Fc in the absence of peptides [4] | input cells bound as % of binding to ICAM-4Fc in the absence of peptides [5] | binding result (αMβ2 integrin) | binding result (αLβ2 integrin) |
| --- | --- | --- | --- | --- | --- | --- | --- |
| B1 | 64% | 52% | 71% | – | – | – | – |
| B2 | 40% | 52% | 41% | 60% | 46% | – | – |
| B3 | – | – | 96% | 92% | 97% | – | – |
| B4 | 39% | 52% | 42% | 80% | 60% | – | – |
| B5 | – | – | – | – | – | binds | binds |
